The values below are quoted from earlier work in publication PMC4769028.

In this data set the target is CusA (Escherichia coli) (UniProt P38054). As to the kind of experiment: ITC. In general terms: Isothermal titration calorimetry measures the heat released or taken up as one component is titrated into another.

pKd: −log10 of the molar value.

UniProt P38054, sequence (P38054 whole entry): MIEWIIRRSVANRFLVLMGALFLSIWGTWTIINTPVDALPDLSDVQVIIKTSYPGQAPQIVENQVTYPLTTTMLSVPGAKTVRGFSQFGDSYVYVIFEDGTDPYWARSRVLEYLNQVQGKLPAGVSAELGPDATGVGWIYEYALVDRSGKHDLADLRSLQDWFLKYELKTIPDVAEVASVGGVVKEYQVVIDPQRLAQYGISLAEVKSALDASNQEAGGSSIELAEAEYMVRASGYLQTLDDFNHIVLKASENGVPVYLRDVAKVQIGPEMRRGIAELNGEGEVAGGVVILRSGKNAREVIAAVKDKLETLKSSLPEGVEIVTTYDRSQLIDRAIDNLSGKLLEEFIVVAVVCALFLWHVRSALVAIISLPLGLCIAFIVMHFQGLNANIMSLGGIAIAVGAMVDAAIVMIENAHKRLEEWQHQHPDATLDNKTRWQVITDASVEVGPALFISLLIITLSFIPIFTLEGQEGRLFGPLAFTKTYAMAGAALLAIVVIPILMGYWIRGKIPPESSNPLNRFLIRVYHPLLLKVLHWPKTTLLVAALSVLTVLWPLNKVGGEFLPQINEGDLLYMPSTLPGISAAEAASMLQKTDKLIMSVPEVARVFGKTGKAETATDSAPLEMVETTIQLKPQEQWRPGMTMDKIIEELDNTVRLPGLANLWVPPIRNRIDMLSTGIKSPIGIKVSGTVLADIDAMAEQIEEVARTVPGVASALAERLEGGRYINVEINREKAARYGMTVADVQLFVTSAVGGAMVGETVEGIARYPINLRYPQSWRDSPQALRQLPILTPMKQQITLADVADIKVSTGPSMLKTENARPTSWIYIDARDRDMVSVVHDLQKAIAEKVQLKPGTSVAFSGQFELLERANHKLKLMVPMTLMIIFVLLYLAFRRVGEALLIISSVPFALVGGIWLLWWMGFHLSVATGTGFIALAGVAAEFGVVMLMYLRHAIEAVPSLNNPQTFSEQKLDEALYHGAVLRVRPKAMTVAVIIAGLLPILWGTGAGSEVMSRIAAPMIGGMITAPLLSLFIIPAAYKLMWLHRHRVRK

Broadly, the pKd is −log10 of the Kd, conventionally taken in molar units. As for CusB (from UniProt P77239), the pKd is 5.29.
